{"source": "paper PMC13397619", "parents": {"B1": {"name": "NLV3 TCR beta chain (CDR3β only) (parent)", "chain": "ASSPTGGSPSPLH", "partner": "NLCPMVATV"}, "B2": {"name": "NLV3 TCR beta chain (CDR3β only) (parent)", "chain": "ASSPTGGSPSPLH"}}, "data": [{"variants_of": "B1", "test": "T-Switch: Jurkat TCRβ−/− cells expressing a CDR3 saturation-mutagenesis library, stained with two peptide-HLA-A*02:01 tetramers (original and novel peptide) plus anti-CD3, FACS-sorted into four gates, gDNA sequenced", "details": "with HLA-A*02:01 with peptide … (NLV 2-1, the novel peptide), tetramers 1 µg/mL, 30 min on ice, SP, DP and SW gates expanded about 10 days between rounds ('two to three rounds of selection' in the Methods), gate SW: higher = more of the variant in the gate that binds the novel peptide and not the original one = switched binding. Fold enrichment of the CDR3 variant in one FACS gate of a two-tetramer stain, unresolved parent, parent is a CDR3 fragment, scale: fold enrichment, numbering: sequential-on-construct, sequence starts at 1", "values": [{"variant": "[…] (CDR3 as printed); G6K derived by comparing it with the table's wild-type CDR3 ASSPTGGSPSPLH", "enrichment": 0}, {"variant": "[…] (CDR3 as printed); G6Q derived by comparing it with the table's wild-type CDR3 ASSPTGGSPSPLH", "enrichment": 0}, {"variant": "[…] (CDR3 as printed); S3E derived by comparing it with the table's wild-type CDR3 ASSPTGGSPSPLH", "enrichment": 0}, {"variant": "[…] (CDR3 as printed); H13I derived by comparing it with the table's wild-type CDR3 ASSPTGGSPSPLH", "enrichment": 0}, {"variant": "[…] (CDR3 as printed); P9Y derived by comparing it with the table's wild-type CDR3 ASSPTGGSPSPLH", "enrichment": 0}, {"variant": "[…] (CDR3 as printed); S3F derived by comparing it with the table's wild-type CDR3 ASSPTGGSPSPLH", "enrichment": 0}, {"variant": "[…] (CDR3 as printed); H13E derived by comparing it with the table's wild-type CDR3 ASSPTGGSPSPLH", "enrichment": 0}, {"variant": "[…] (CDR3 as printed); G6V derived by comparing it with the table's wild-type CDR3 ASSPTGGSPSPLH", "enrichment": 0}, {"variant": "[…] (CDR3 as printed); S10N derived by comparing it with the table's wild-type CDR3 ASSPTGGSPSPLH", "enrichment": 0}, {"variant": "[…] (CDR3 as printed); L12K derived by comparing it with the table's wild-type CDR3 ASSPTGGSPSPLH", "enrichment": 0}, {"variant": "[…] (CDR3 as printed); T5M derived by comparing it with the table's wild-type CDR3 ASSPTGGSPSPLH", "enrichment": 0}, {"variant": "[…] (CDR3 as printed); S2K derived by comparing it with the table's wild-type CDR3 ASSPTGGSPSPLH", "enrichment": 0}, {"variant": "[…] (CDR3 as printed); A1G derived by comparing it with the table's wild-type CDR3 ASSPTGGSPSPLH", "enrichment": 0}, {"variant": "[…] (CDR3 as printed); P9N derived by comparing it with the table's wild-type CDR3 ASSPTGGSPSPLH", "enrichment": 0}, {"variant": "[…] (CDR3 as printed); P4I derived by comparing it with the table's wild-type CDR3 ASSPTGGSPSPLH", "enrichment": 0}, {"variant": "[…] (CDR3 as printed); S2P derived by comparing it with the table's wild-type CDR3 ASSPTGGSPSPLH", "enrichment": 0}, {"variant": "[…] (CDR3 as printed); G7V derived by comparing it with the table's wild-type CDR3 ASSPTGGSPSPLH", "enrichment": 0}, {"variant": "[…] (CDR3 as printed); P11E derived by comparing it with the table's wild-type CDR3 ASSPTGGSPSPLH", "enrichment": 0}, {"variant": "[…] (CDR3 as printed); S3P derived by comparing it with the table's wild-type CDR3 ASSPTGGSPSPLH", "enrichment": 0}, {"variant": "[…] (CDR3 as printed); S3Y derived by comparing it with the table's wild-type CDR3 ASSPTGGSPSPLH", "enrichment": 0}, {"variant": "[…] (CDR3 as printed); T5C derived by comparing it with the table's wild-type CDR3 ASSPTGGSPSPLH", "enrichment": 0}, {"variant": "[…] (CDR3 as printed); G7E derived by comparing it with the table's wild-type CDR3 ASSPTGGSPSPLH", "enrichment": 0}, {"variant": "[…] (CDR3 as printed); G6F derived by comparing it with the table's wild-type CDR3 ASSPTGGSPSPLH", "enrichment": 0}, {"variant": "[…] (CDR3 as printed); A1L derived by comparing it with the table's wild-type CDR3 ASSPTGGSPSPLH", "enrichment": 0}, {"variant": "[…] (CDR3 as printed); S2H derived by comparing it with the table's wild-type CDR3 ASSPTGGSPSPLH", "enrichment": 0}, {"variant": "[…] (CDR3 as printed); A1S derived by comparing it with the table's wild-type CDR3 ASSPTGGSPSPLH", "enrichment": 0}]}, {"variants_of": "B1", "test": "T-Switch: Jurkat TCRβ−/− cells expressing a CDR3 saturation-mutagenesis library, stained with two peptide-HLA-A*02:01 tetramers (original and novel peptide) plus anti-CD3, FACS-sorted into four gates, gDNA sequenced", "details": "with HLA-A*02:01 with peptide … (NLV 2-1, the novel peptide), tetramers 1 µg/mL, 30 min on ice, SP, DP and SW gates expanded about 10 days between rounds ('two to three rounds of selection' in the Methods), gate SW: higher = more of the variant in the gate that binds the novel peptide and not the original one = switched binding. Fold enrichment of the CDR3 variant in one FACS gate of a two-tetramer stain, unresolved parent, parent is a CDR3 fragment, zero in all gates, scale: fold enrichment, numbering: sequential-on-construct, …", "values": [{"variant": "[…] (CDR3 as printed); S2L derived by comparing it with the table's wild-type CDR3 ASSPTGGSPSPLH", "enrichment": 0}]}, {"variants_of": "B2", "test": "T-Switch: Jurkat TCRβ−/− cells expressing a CDR3 saturation-mutagenesis library, stained with two peptide-HLA-A*02:01 tetramers (original and novel peptide) plus anti-CD3, FACS-sorted into four gates, gDNA sequenced", "details": "with both tetramers (double-negative gate, binds neither): HLA-A*02:01 with … and with …, tetramers 1 µg/mL, 30 min on ice, SP, DP and SW gates expanded about 10 days between rounds ('two to three rounds of selection' in the Methods), gate DN: OPPOSITE: higher = more of the variant in the gate that binds neither peptide = LESS binding (or no expression; inferred). Fold enrichment of the CDR3 variant in one FACS gate of a two-tetram, unresolved parent, parent is a CDR3 fragment, scale: fold enrichment, numbering: sequential-on-construct, sequence starts at 1", "values": [{"variant": "[…] (CDR3 as printed); T5V derived by comparing it with the table's wild-type CDR3 ASSPTGGSPSPLH", "enrichment": 0.249}, {"variant": "[…] (CDR3 as printed); T5W derived by comparing it with the table's wild-type CDR3 ASSPTGGSPSPLH", "enrichment": 0}, {"variant": "[…] (CDR3 as printed); T5R derived by comparing it with the table's wild-type CDR3 ASSPTGGSPSPLH", "enrichment": 1.07}, {"variant": "[…] (CDR3 as printed); T5Q derived by comparing it with the table's wild-type CDR3 ASSPTGGSPSPLH", "enrichment": 1.16}, {"variant": "[…] (CDR3 as printed); T5S derived by comparing it with the table's wild-type CDR3 ASSPTGGSPSPLH", "enrichment": 0.633}, {"variant": "[…] (CDR3 as printed); T5Y derived by comparing it with the table's wild-type CDR3 ASSPTGGSPSPLH", "enrichment": 0.587}]}, {"variants_of": "B2", "test": "T-Switch: Jurkat TCRβ−/− cells expressing a CDR3 saturation-mutagenesis library, stained with two peptide-HLA-A*02:01 tetramers (original and novel peptide) plus anti-CD3, FACS-sorted into four gates, gDNA sequenced", "details": "with both tetramers (double-positive gate): HLA-A*02:01 with … and with …, tetramers 1 µg/mL, 30 min on ice, SP, DP and SW gates expanded about 10 days between rounds ('two to three rounds of selection' in the Methods), gate DP: higher = more of the variant in the gate that binds both peptides. Fold enrichment of the CDR3 variant in one FACS gate of a two-tetramer stain. SP/DP/SW gates were expanded and re-sorted bef, unresolved parent, parent is a CDR3 fragment, scale: fold enrichment, numbering: sequential-on-construct, sequence starts at 1", "values": [{"variant": "[…] (CDR3 as printed); T5V derived by comparing it with the table's wild-type CDR3 ASSPTGGSPSPLH", "enrichment": 0}, {"variant": "[…] (CDR3 as printed); T5W derived by comparing it with the table's wild-type CDR3 ASSPTGGSPSPLH", "enrichment": 0}, {"variant": "[…] (CDR3 as printed); T5R derived by comparing it with the table's wild-type CDR3 ASSPTGGSPSPLH", "enrichment": 0}, {"variant": "[…] (CDR3 as printed); T5Q derived by comparing it with the table's wild-type CDR3 ASSPTGGSPSPLH", "enrichment": 0}, {"variant": "[…] (CDR3 as printed); T5S derived by comparing it with the table's wild-type CDR3 ASSPTGGSPSPLH", "enrichment": 0}, {"variant": "[…] (CDR3 as printed); T5Y derived by comparing it with the table's wild-type CDR3 ASSPTGGSPSPLH", "enrichment": 0}]}, {"variants_of": "B2", "test": "T-Switch: Jurkat TCRβ−/− cells expressing a CDR3 saturation-mutagenesis library, stained with two peptide-HLA-A*02:01 tetramers (original and novel peptide) plus anti-CD3, FACS-sorted into four gates, gDNA sequenced", "details": "with both tetramers (double-negative gate, binds neither): HLA-A*02:01 with … and with …, tetramers 1 µg/mL, 30 min on ice, SP, DP and SW gates expanded about 10 days between rounds ('two to three rounds of selection' in the Methods), gate DN: OPPOSITE: higher = more of the variant in the gate that binds neither peptide = LESS binding (or no expression; inferred). Fold enrichment of the CDR3 variant in one FACS gate of a two-tetram, unresolved parent, parent is a CDR3 fragment, zero in all gates, scale: fold enrichment, numbering: sequential-on-construct, …", "values": [{"variant": "[…] (CDR3 as printed); G7P derived by comparing it with the table's wild-type CDR3 ASSPTGGSPSPLH", "enrichment": 0}, {"variant": "[…] (CDR3 as printed); S2L derived by comparing it with the table's wild-type CDR3 ASSPTGGSPSPLH", "enrichment": 0}]}, {"variants_of": "B2", "test": "T-Switch: Jurkat TCRβ−/− cells expressing a CDR3 saturation-mutagenesis library, stained with two peptide-HLA-A*02:01 tetramers (original and novel peptide) plus anti-CD3, FACS-sorted into four gates, gDNA sequenced", "details": "with both tetramers (double-positive gate): HLA-A*02:01 with … and with …, tetramers 1 µg/mL, 30 min on ice, SP, DP and SW gates expanded about 10 days between rounds ('two to three rounds of selection' in the Methods), gate DP: higher = more of the variant in the gate that binds both peptides. Fold enrichment of the CDR3 variant in one FACS gate of a two-tetramer stain. SP/DP/SW gates were expanded and re-sorted bef, unresolved parent, parent is a CDR3 fragment, zero in all gates, scale: fold enrichment, numbering: sequential-on-construct, sequence starts at 1", "values": [{"variant": "[…] (CDR3 as printed); G7P derived by comparing it with the table's wild-type CDR3 ASSPTGGSPSPLH", "enrichment": 0}, {"variant": "[…] (CDR3 as printed); S2L derived by comparing it with the table's wild-type CDR3 ASSPTGGSPSPLH", "enrichment": 0}]}]}
